Patent US20250129143A1

Experiments:
[1] = molecular target: K6 (human); assay: immunoprecipitation from HCT-116 cell extract; gel region of 62 kDa or more; quantitative mass spectrometry with stable isotope-labeled peptides [panel A]
[2] = molecular target: polyubiquitinated substrates (HCT-116 cell extract); assay: as above
[3] = molecular target: K29 (human); assay: as above
[4] = molecular target: K11 (human); assay: as above
[5] = molecular target: M1 (human); assay: as above
[6] = molecular target: K63 (human); assay: as above
[7] = molecular target: K48 (human); assay: as above
[8] = molecular target: K27 (human); assay: as above
[9] = molecular target: K33 (human); assay: as above
[10] = molecular target: K6 (human); assay: immunoprecipitation from HCT-116 cell extract; quantitative mass spectrometry; pie chart [panel B]
[11] = molecular target: K29 (human); assay: as above
[12] = molecular target: K11 (human); assay: as above
[13] = molecular target: M1 (human); assay: as above
[14] = molecular target: K63 (human); assay: as above
[15] = molecular target: K48 (human); assay: as above
[16] = molecular target: K27 (human); assay: as above
[17] = molecular target: K33 (human); assay: as above
[18] = molecular target: polyubiquitinated substrates (HCT-116 cell extract); assay: immunoprecipitation (Halo tag-fused wild-type monobody) from HCT-116 cell extract; gel region of 62 kDa or more; quantitative mass spectrometry with stable isotope-labeled peptides [panel A]

Substance Control IgG (antibody) has a K6 chain-derived peptide in the immunoprecipitate [1] of 0 fmol, an EST peptide (…) in the immunoprecipitate [2] of 0.19 fmol and a total ubiquitin in the immunoprecipitate (EST + K63 peptides) [2] of 0.19 fmol. The K29 chain-derived peptide in the immunoprecipitate [3] was 0 fmol, the K11 chain-derived peptide in the immunoprecipitate [4] was 0.02 fmol and the M1 chain-derived peptide in the immunoprecipitate [5] was 0 fmol. For the same substance, the K63 chain-derived peptide in the immunoprecipitate [6] was 0 fmol, the K48 chain-derived peptide in the immunoprecipitate [7] was 0.04 fmol and the K27 chain-derived peptide in the immunoprecipitate [8] was 0.03 fmol. For the same substance, the K33 chain-derived peptide in the immunoprecipitate [9] was 0 fmol.
Work on “anti-polyubiquitin monoclonal antibody FK2 (0918-2, Nippon Bio-Test)” yielded a percentage of this chain among the 8 ubiquitin chain-derived peptides in the immunoprecipitate (control subtracted) [10] of 5%, a percentage of this chain among the 8 ubiquitin chain-derived peptides in the immunoprecipitate (control subtracted) [11] of 8% and a percentage of this chain among the 8 ubiquitin chain-derived peptides in the immunoprecipitate (control subtracted) [12] of 7%. The percentage of this chain among the 8 ubiquitin chain-derived peptides in the immunoprecipitate (control subtracted) [13] was 0%, the percentage of this chain among the 8 ubiquitin chain-derived peptides in the immunoprecipitate (control subtracted) [14] was 20% and the percentage of this chain among the 8 ubiquitin chain-derived peptides in the immunoprecipitate (control subtracted) [15] was 60%. For the same substance, the percentage of this chain among the 8 ubiquitin chain-derived peptides in the immunoprecipitate (control subtracted) [16] was 0%, the percentage of this chain among the 8 ubiquitin chain-derived peptides in the immunoprecipitate (control subtracted) [17] was 0% and the K6 chain-derived peptide in the immunoprecipitate [1] was 2.15 fmol. For the same substance, the EST peptide (…) in the immunoprecipitate [2] was 106 fmol, the total ubiquitin in the immunoprecipitate (EST + K63 peptides) [2] was 116 fmol and the K29 chain-derived peptide in the immunoprecipitate [3] was 3.69 fmol. It also gave a K11 chain-derived peptide in the immunoprecipitate [4] of 3.62 fmol, an M1 chain-derived peptide in the immunoprecipitate [5] of 0.02 fmol and a K63 chain-derived peptide in the immunoprecipitate [6] of 9.59 fmol. It also gave a K48 chain-derived peptide in the immunoprecipitate [7] of 29.1 fmol, a K27 chain-derived peptide in the immunoprecipitate [8] of 0.11 fmol and a K33 chain-derived peptide in the immunoprecipitate [9] of 0.2 fmol.
Substance “anti-ubiquitin antibody P4D1 (sc-8017, Santa Cruz)” has a percentage of this chain among the 8 ubiquitin chain-derived peptides in the immunoprecipitate (control subtracted) [10] of 3%, a percentage of this chain among the 8 ubiquitin chain-derived peptides in the immunoprecipitate (control subtracted) [11] of 43% and a percentage of this chain among the 8 ubiquitin chain-derived peptides in the immunoprecipitate (control subtracted) [12] of 3%. For the same substance, the percentage of this chain among the 8 ubiquitin chain-derived peptides in the immunoprecipitate (control subtracted) [13] was 0%, the percentage of this chain among the 8 ubiquitin chain-derived peptides in the immunoprecipitate (control subtracted) [14] was 5% and the percentage of this chain among the 8 ubiquitin chain-derived peptides in the immunoprecipitate (control subtracted) [15] was 46%. The percentage of this chain among the 8 ubiquitin chain-derived peptides in the immunoprecipitate (control subtracted) [16] was 0%, the percentage of this chain among the 8 ubiquitin chain-derived peptides in the immunoprecipitate (control subtracted) [17] was 0% and the K6 chain-derived peptide in the immunoprecipitate [1] was 1.32 fmol. The EST peptide (…) in the immunoprecipitate [2] was 72.1 fmol, the total ubiquitin in the immunoprecipitate (EST + K63 peptides) [2] was 74.5 fmol and the K29 chain-derived peptide in the immunoprecipitate [3] was 20.1 fmol. It also gave a K11 chain-derived peptide in the immunoprecipitate [4] of 1.65 fmol, an M1 chain-derived peptide in the immunoprecipitate [5] of 0 fmol and a K63 chain-derived peptide in the immunoprecipitate [6] of 2.47 fmol. The K48 chain-derived peptide in the immunoprecipitate [7] was 21.8 fmol, the K27 chain-derived peptide in the immunoprecipitate [8] was 0.08 fmol and the K33 chain-derived peptide in the immunoprecipitate [9] was 0.11 fmol.
Substance “wild-type Monobody (FN3) (designed binder)” has an EST peptide (…) in the immunoprecipitate [18] of 12.3 fmol and a total ubiquitin in the immunoprecipitate (EST + K63 peptides) [18] of 13 fmol.
